# Source: US20070207532
# Legend:
# [1] = biological target: AGT mutant of Example 1 (GST fusion) Lys125Ala, Ala127Thr, Arg128Ala, Asn157Gly, Ser159Glu (Homo sapiens) (UniProt P16455); conditions: co-purified DNA estimated by A280/A260 after purification in 50 mM phosphate, 0.1 M NaCl, 1 mM DTT
# [2] = biological target: PGEG-hAGT (GST fusion) Asn157Gly, Ser159Glu (Homo sapiens) (UniProt P16455); experiment: inhibition; conditions: BG-Cy3 reaction rate with 25 ug/ml DNA
# PGEG-hAGT (GST fusion) Asn157Gly, Ser159Glu (Homo sapiens), sequence (P16455 whole entry N157G/S159E, the tested form may be a part): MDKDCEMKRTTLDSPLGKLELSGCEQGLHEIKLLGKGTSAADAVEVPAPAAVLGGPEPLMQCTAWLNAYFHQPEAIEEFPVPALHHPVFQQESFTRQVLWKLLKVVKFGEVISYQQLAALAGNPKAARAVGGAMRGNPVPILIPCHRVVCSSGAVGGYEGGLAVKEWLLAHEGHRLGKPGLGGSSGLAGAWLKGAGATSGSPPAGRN
# AGT mutant of Example 1 (GST fusion) Lys125Ala, Ala127Thr, Arg128Ala, Asn157Gly, Ser159Glu (Homo sapiens), sequence (P16455 whole entry K125A/A127T/R128A/N157G/S159E, the tested form may be a part): as the sequence (P16455 whole entry N157G/S159E, the tested form may be a part) above, with K125A, A127T, R128A counted along it
Substance,binding signal [1] [fold reduced],activity (fold rate reduction) [2]
co-purified E. coli DNA,> 10,
salmon sperm DNA,,5
